Test results reported in US20140087995A1 (published 2014).
Numbered stars: 1 amine (or outer) side, 2 acyl side, 3 side chain; on linkers, the order of the positions; unused ones are H or OH. Bridge positions count the residues as written; N and C are the ends. Side chains are listed from the residue outwards. Ends that are not written are not given here. * marks the point of attachment. C20 diacid = O=C(O)CCCCCCCCCCCCCCCCCCC(=O)*; γGlu = O=C(O)[C@H](CCC(=O)[*:2])N[*:1]; AEEA = NCCOCCOCC(=O)O

How the values were obtained:
[1] = target: T1, human calcitonin receptor (human, UniProt P30988 25-474); assay: IC50 at hCTR divided by IC50 at hAmylin-R (SPA competition assays V and VII)
T1 construct: whole, on cells; Assayed as cell membranes of BHK tk'ts 13 cells stably transfected with the human calcitonin receptor (Assay VII); also called hCTR; hCT
T1 sequence (looked up): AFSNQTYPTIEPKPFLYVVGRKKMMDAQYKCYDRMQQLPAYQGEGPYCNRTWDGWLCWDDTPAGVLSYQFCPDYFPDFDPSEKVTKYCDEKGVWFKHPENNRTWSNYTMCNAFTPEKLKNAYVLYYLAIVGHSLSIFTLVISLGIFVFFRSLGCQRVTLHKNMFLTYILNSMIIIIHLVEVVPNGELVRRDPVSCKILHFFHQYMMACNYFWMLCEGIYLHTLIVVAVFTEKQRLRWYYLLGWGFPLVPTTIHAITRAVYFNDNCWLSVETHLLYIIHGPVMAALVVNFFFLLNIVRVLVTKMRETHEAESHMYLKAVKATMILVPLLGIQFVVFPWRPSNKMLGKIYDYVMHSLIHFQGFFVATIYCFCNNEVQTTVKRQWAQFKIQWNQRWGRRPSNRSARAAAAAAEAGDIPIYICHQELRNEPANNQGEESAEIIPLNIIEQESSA
Method in brief: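 Competition binding by SPA uses membrane preparations (35 ng/μL final) in pH 7.4 Hepes buffer with 1 mM CaCl2 and 5 mM MgCl₂. Incubation lasts 120 min at 25° C, and IC₅₀ comes from one-site fitting.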

[2] = target: T1, human calcitonin receptor; assay: SPA competition vs 125I-calcitonin, membranes of BHK cells with human calcitonin receptor (Assay VII)
Method in brief: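 BHK hCTR membranes 35 ng/μL + SPA beads 0.05 mg/well; buffer 50 mM Hepes pH 7.4, 1 mM CaCl2, 5 mM MgCl₂, 0.1% OA, 0.02% Tween20. 120 min, 25° C., shaking. Scintillation count; IC50 by one-site binding competition.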

| Ratio hCT/hAmylin binding [1] | IC50 [2] | Binder |
| --- | --- | --- |
| 51.7 | 0.00538 µM | K([AEEA-γGlu-C20 diacid])CNTATCATQRLASFLRHSSPNFGAIPSSTPVGSNTY-NH2 (disulfide 2-7; N-terminus assumed; SMILES CC[C@H](C)[C@H](NC(=O)[C@H](C)NC(=O)CNC(=O)[C@H](Cc1ccccc1)NC(=O)[C@H](CC(N)=O)NC(=O)[C@@H]1CCCN1C(=O)[C@H](CO)NC(=O)[C@H](CO)NC(=O)[C@H](Cc1c[nH]cn1)NC(=O)[C@H](CCCNC(=N)N)NC(=O)[C@H](CC(C)C)NC(=O)[C@H](Cc1ccccc1)NC(=O)[C@H](CO)NC(=O)[C@H](C)NC(=O)[C@H](CC(C)C)NC(=O)[C@H](CCCNC(=N)N)NC(=O)[C@H](CCC(N)=O)NC(=O)[C@@H](NC(=O)[C@H](C)NC(=O)[C@@H]1CSSC[C@H](NC(=O)[C@@H](N)CCCCNC(=O)COCCOCCNC(=O)CC[C@H](NC(=O)CCCCCCCCCCCCCCCCCCC(=O)O)C(=O)O)C(=O)N[C@@H](CC(N)=O)C(=O)N[C@@H]([C@@H](C)O)C(=O)N[C@@H](C)C(=O)N[C@@H]([C@@H](C)O)C(=O)N1)[C@@H](C)O)C(=O)N1CCC[C@H]1C(=O)N[C@@H](CO)C(=O)N[C@@H](CO)C(=O)N[C@H](C(=O)N1CCC[C@H]1C(=O)N[C@H](C(=O)NCC(=O)N[C@@H](CO)C(=O)N[C@@H](CC(N)=O)C(=O)N[C@H](C(=O)N[C@@H](Cc1ccc(O)cc1)C(N)=O)[C@@H](C)O)C(C)C)[C@@H](C)O, also called compound 73) |
| 91.4 | 0.0609 µM | K([AEEA-γGlu-C20 diacid])CNTATCATQRLATFLRHSSPNFGAIPSSTPVGSNTY-NH2 (disulfide 2-7; N-terminus assumed; SMILES CC[C@H](C)[C@H](NC(=O)[C@H](C)NC(=O)CNC(=O)[C@H](Cc1ccccc1)NC(=O)[C@H](CC(N)=O)NC(=O)[C@@H]1CCCN1C(=O)[C@H](CO)NC(=O)[C@H](CO)NC(=O)[C@H](Cc1c[nH]cn1)NC(=O)[C@H](CCCNC(=N)N)NC(=O)[C@H](CC(C)C)NC(=O)[C@H](Cc1ccccc1)NC(=O)[C@@H](NC(=O)[C@H](C)NC(=O)[C@H](CC(C)C)NC(=O)[C@H](CCCNC(=N)N)NC(=O)[C@H](CCC(N)=O)NC(=O)[C@@H](NC(=O)[C@H](C)NC(=O)[C@@H]1CSSC[C@H](NC(=O)[C@@H](N)CCCCNC(=O)COCCOCCNC(=O)CC[C@H](NC(=O)CCCCCCCCCCCCCCCCCCC(=O)O)C(=O)O)C(=O)N[C@@H](CC(N)=O)C(=O)N[C@@H]([C@@H](C)O)C(=O)N[C@@H](C)C(=O)N[C@@H]([C@@H](C)O)C(=O)N1)[C@@H](C)O)[C@@H](C)O)C(=O)N1CCC[C@H]1C(=O)N[C@@H](CO)C(=O)N[C@@H](CO)C(=O)N[C@H](C(=O)N1CCC[C@H]1C(=O)N[C@H](C(=O)NCC(=O)N[C@@H](CO)C(=O)N[C@@H](CC(N)=O)C(=O)N[C@H](C(=O)N[C@@H](Cc1ccc(O)cc1)C(N)=O)[C@@H](C)O)C(C)C)[C@@H](C)O, also called compound 75) |
